Series [1] concerns the target Tv-PSP1, perchloric-acid-soluble protein (PSP) from Trichomonas vaginalis (Trichomonas vaginalis). The series can be described thus: crystal structure; recombinant Tv-PSP1 20 mg/mL in 25 mM Tris-HCl pH 7.4, 150 mM NaCl, 1 mM DTT; sitting-drop vapor diffusion at 18 °C; space group P63, 1.95 Å; trimers built from the same monomer of different asymmetric units, interfaces analysed with PISA.

Another series deals with T1, Tv-PSP1 (Trichomonas vaginalis, UniProt A2DAL5 1-124).
T1 sequence: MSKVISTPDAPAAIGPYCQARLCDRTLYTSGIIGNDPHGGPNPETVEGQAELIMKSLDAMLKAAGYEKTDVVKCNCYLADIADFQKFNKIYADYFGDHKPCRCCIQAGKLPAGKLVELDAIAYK
The series can be described thus: EMSA; 3 mM Mg2+; REMSA: 50 mM Tris-HCl, 75 mM KCl, 3 mM MgCl2, 10 mM DTT, 37 C, 30 min, pH not stated; 100 ug protein, 1 ug RNA; 1.7% agarose. The note with it: protein: recombinant; chain copies: 3; hairpin. In general terms: Mobility shift assays separate free from complexed probe on a gel.

The record followed here is publication PMC9863245, “A Putative New Role of Tv-PSP1 Recognizes IRE and ERE Hairpin Structures from Trichomonas vaginalis”.

On to “Tv-PSP1, perchloric-acid-soluble protein (PSP) from Trichomonas vaginalis (natural protein)”, for which the stoichiometry N in series [1] was found to be 3. In the case of GGGGUUUAGAAUUUCCAAUAA (structured_RNA) [ERE-like (tvcp39 3' UTR)], in the series with Tv-PSP1, the binding result is recorded as “binds”.

What is called stoichiometry N is a count of units in the complex or per binding partner.
